According to patent US6534281:

Experiments:
[1] = biological target: human C-peptide (human); assay: sandwich immunoassay, two-step; CPT-3F-11 on particles, labeled antibody 9101
[2] = biological target: human C-peptide (human); assay: ELISA on immobilized C-peptide; labeled antibody 10 ug/ml, free C-peptide 1.0 ug/ml
[3] = biological target: human C-peptide (human); assay: ELISA on immobilized C-peptide; labeled antibody 0.0 ug/ml (blank), free C-peptide 1.0 ug/ml
[4] = biological target: human proinsulin (human) (UniProt P01308); assay: sandwich immunoassay, one-step; proinsulin 50 ng/ml; CPT-3F-11 on particles, labeled antibody 9101
[5] = biological target: human proinsulin (human) (UniProt P01308); assay: sandwich immunoassay, two-step; proinsulin 50 ng/ml; CPT-3F-11 on particles, labeled antibody 9101
[6] = biological target: human proinsulin (human) (UniProt P01308); assay: sandwich immunoassay, two-step; proinsulin 400 ng/ml; CPT-3F-11 on particles, labeled antibody 9101
[7] = biological target: human proinsulin (human) (UniProt P01308); assay: sandwich immunoassay, one-step, against C-peptide calibration; proinsulin 50 ng/ml; CPT-3-F11 on particles, labeled antibody 9101
[8] = biological target: human proinsulin (human) (UniProt P01308); assay: sandwich immunoassay, two-step, against C-peptide calibration; proinsulin 50 ng/ml; CPT-3-F11 on particles, labeled antibody 9101
[9] = biological target: human proinsulin (human) (UniProt P01308); assay: sandwich immunoassay, two-step, against C-peptide calibration; proinsulin 50 ng/ml; CPT-3-F11 on particles, labeled antibody PEP-001
[10] = biological target: human proinsulin (human) (UniProt P01308); assay: sandwich immunoassay, two-step, against C-peptide calibration; proinsulin 200 ng/ml; CPT-3-F11 on particles, labeled antibody PEP-001
[11] = biological target: human proinsulin (human) (UniProt P01308); assay: sandwich immunoassay, two-step, against C-peptide calibration; proinsulin 400 ng/ml; CPT-3-F11 on particles, labeled antibody PEP-001
[12] = biological target: modified C-peptide (human C-peptide having Arg-Arg bound to its N-terminal and Lys-Arg bound to its C-terminal) (human); assay: sandwich immunoassay, two-step, against C-peptide calibration; modified C-peptide 5 ng/ml; CPT-3F-11 on particles, labeled antibody PEP-001
modified C-peptide (human C-peptide having Arg-Arg bound to its N-terminal and Lys-Arg bound to its C-terminal) (human), sequence (peptide, as listed by the source): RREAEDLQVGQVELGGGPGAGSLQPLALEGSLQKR

UniProt P01308, sequence (P01308 25-110): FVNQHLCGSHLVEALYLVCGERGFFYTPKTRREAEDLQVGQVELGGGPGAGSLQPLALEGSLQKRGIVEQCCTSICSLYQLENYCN
human C-peptide (human), sequence (peptide, as listed by the source): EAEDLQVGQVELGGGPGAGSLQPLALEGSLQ

With “anti-human C-peptide monoclonal antibody CPT-3-F11 (Dako)” as the substance, how does the 2S/N value [1] read?
Its 2S/N value is 0.005 ng/mL.

And the Absorbance (absorbance at 405 nm) [2]?
Its Absorbance (absorbance at 405 nm) is 0.059.

What about the Binding Ratio [2] of the same substance?
The Binding Ratio was 2.7%.

And the Absorbance (absorbance at 405 nm) [3]?
The Absorbance (absorbance at 405 nm) was 0.

What about the Binding Ratio [3] of the same substance?
Its Binding Ratio is 0%.

And the counts of chemiluminescence [4]?
The counts of chemiluminescence was 4140 counts.

What about the counts of chemiluminescence [5] of the same substance?
Its counts of chemiluminescence is 4400 counts.

What about the counts of chemiluminescence [6] of the same substance?
The counts of chemiluminescence was 99400 counts.

And the Cross-reactivity (%) to Human Proinsulin [7]?
The Cross-reactivity (%) to Human Proinsulin was 0.9%.

What about the Cross-reactivity (%) to Human Proinsulin [8] of the same substance?
The Cross-reactivity (%) to Human Proinsulin was 0.4%.

And the Cross-reactivity (%) to Human Proinsulin [9]?
Its Cross-reactivity (%) to Human Proinsulin is 41.1%.

And the Cross-reactivity (%) to Human Proinsulin [10]?
The Cross-reactivity (%) to Human Proinsulin was > 30%.

What about the Cross-reactivity (%) to Human Proinsulin [11] of the same substance?
Its Cross-reactivity (%) to Human Proinsulin is > 15%.

What about the Cross-reactivity (%) to Modified C-peptide [12] of the same substance?
The Cross-reactivity (%) to Modified C-peptide was 53.2%.
